The text below walks through data of paper PMC7618002.

Holding throughout (assay): SEC; analytical SEC of the purified protein alone; oligomeric state in solution
Background: In gel filtration, larger molecules generally elute earlier.

For assay [1], the target named is WsmE (Streptomyces sp. CB02120-2).
Assay [2] concerns the target WsmD (Streptomyces sp. CB02120-2).
In assay [3] the target is WsmS (Streptomyces sp. CB02120-2).
For another assay, the target named is LnmF.
For assay [4], the target named is WsmR KS6 (Streptomyces sp. CB02120-2).

In general, stoichiometry N refers to a count of units in the complex or per binding partner. In the case of WsmE (enzyme), the stoichiometry N in assay [1] was determined as 3.
In assay [2], WsmD (enzyme) showed a stoichiometry N of 2.
Consider WsmS (enzyme), for which, in assay [3], the stoichiometry N is 2.
Substance LnmF (enzyme) displayed a stoichiometry N with LnmF of 3.
Take WsmR KS6 (domain or fragment): the stoichiometry N in assay [4] is 2.
